Source: paper PMC11871066, “Structure-based discovery of hydrocarbon-stapled paxillin peptides that block FAK scaffolding in cancer” (Nature Communications, 2025)
Bridge positions count the residues as written; N and C are the ends. Square brackets hold non-standard residues; d marks the D form. R8 = C=CCCCCCC[C@@](C)(N)C(=O)O; R5 = C=CCCC[C@@](C)(N)C(=O)O; S5 = C=CCCC[C@](C)(N)C(=O)O

B1: stapled peptide 1920 (lengthened 1907) (peptide)
chain: Ac-SLGSNL[R8]ELDRLL[S5]ELNAVQH-NH2
modifications: staple 7-14
SMILES: CC(=O)N[C@@H](CO)C(=O)N[C@@H](CC(C)C)C(=O)NCC(=O)N[C@@H](CO)C(=O)N[C@@H](CC(N)=O)C(=O)N[C@@H](CC(C)C)C(=O)N[C@]1(C)CCCCCCC=CCCC[C@@](C)(C(=O)N[C@@H](CCC(=O)O)C(=O)N[C@@H](CC(C)C)C(=O)N[C@@H](CC(N)=O)C(=O)N[C@@H](C)C(=O)N[C@H](C(=O)N[C@@H](CCC(N)=O)C(=O)N[C@@H](Cc2c[nH]cn2)C(N)=O)C(C)C)NC(=O)[C@H](CC(C)C)NC(=O)[C@H](CC(C)C)NC(=O)[C@H](CCCNC(=N)N)NC(=O)[C@H](CC(=O)O)NC(=O)[C@H](CC(C)C)NC(=O)[C@H](CCC(=O)O)NC1=O

Assays:
[1] = molecular target: T1, recombinant FAK FAT protein (fluorescence polarisation assay) (human); assay: fluorescence polarisation; competition: FAT 25 µM, TAMRA-LD2 L10D probe 0.1 µM, peptide titrated from 1.25 mM, 3 h; 20 mM Tris-Cl pH 8.0, 200 mM NaCl, 0.05% β-mercaptoethanol, 0.1% Triton-X 100, 5% glycerol; Ki calculated from IC50; conditions: both partners purified
T1 construct: focal adhesion kinase (FAK), focal adhesion targeting (FAT) domain

[2] = molecular target: T2, biotinylated AviTag FAK FAT protein (human, biotin); assay: SPR; biotinylated AviTag FAT immobilised on a streptavidin (SADH) biosensor, ForteBio Pioneer FE, OneStep gradient injection at 150 µl/min; 100 mM Tris-Cl pH 8.0, 200 mM NaCl, 0.05% Tween-20; peptides 200 µM to 97 nM; KD from kinetic data, one-site model; conditions: both partners purified
T2 construct: focal adhesion kinase (FAK), focal adhesion targeting (FAT) domain; captured on a streptavidin biosensor; also called focal adhesion targeting (FAT) domain

Binder	Ki [1]	Kd [2]
Ac-NLS[R8]LDRLLL[S5]LN-NH2 (staple 4-11) [stapled peptide 1905]	> 1250 µM	146 µM
Ac-NLSE[R8]DRLLLE[S5]N-NH2 (staple 5-12) [stapled peptide 1914]	> 1250 µM	120 µM
Ac-NL[R8]ALDALL[S5]ELN-NH2 (staple 3-10) [stapled peptide 2010]	68.5 µM	12.6 µM
Ac-NLSELDRL[R5]LE[S5]N-NH2 (staple 9-12) [stapled peptide 1921]	492 µM	> 200 µM
Ac-[R8]ELDRLL[S5]-NH2 (staple 1-8) [truncated stapled peptide 2011]	> 333 µM	> 200 µM
Ac-NLSE[S5]DRL[S5]LELN-NH2 (staple 5-9) [stapled peptide 1919]	38.6 µM	80.6 µM
B1	25 µM	
Ac-NL[R8]ALDRLL[S5]ELN-NH2 (staple 3-10) [stapled peptide 2009]	26.7 µM	3.4 µM
Ac-NLSELDR[S5]LLE[S5]N-NH2 (staple 8-12) [stapled peptide 2015]	114 µM	30.6 µM
Ac-NL[R8]ELDRLW[S5]ELN-NH2 (staple 3-10) [stapled peptide 2007]	190 µM	60.6 µM
Ac-DL[R8]ELDRLL[S5]ELD-NH2 (staple 3-10) [stapled peptide 1913]	21.8 µM	13.7 µM
Ac-N[R8]SELDRL[S5]LELN-NH2 (staple 2-9) [stapled peptide 2017]	80.6 µM	27.9 µM
Ac-NL[R8]EWDRLL[S5]EWN-NH2 (staple 3-10) [stapled peptide 1933]	281 µM	155 µM
Ac-NL[R8]QLDRLL[S5]QLN-NH2 (staple 3-10) [stapled peptide 1910]	46.8 µM	22.6 µM
